Assay [1] addresses CRF-R1. Put plainly: displacement of 125I-Sauvagine, membranes of CHO cells expressing CRFR1, filtration assay. Background: In a radioligand displacement assay an active substance lowers the binding of a labelled ligand.
Assay [2] has as its target CRF-R2β. Put plainly: displacement of 125I-Sauvagine, membranes of CHO cells expressing CRFR2β, filtration assay.
Assay [3] deals with CRF-R1. Put plainly: cell-based or functional assay.
Assay [4] concerns the target CRF-R2β. Nature of the assay: cell-based or functional assay.
Assay [5] deals with CRF-R1. Put plainly: assay not named in the summary; presumably 125I-sauvagine competition.
The target in assay [6] is CRF-R2β. Nature of the assay: radioreceptor competition vs 125I-[Tyr0,Glu1,Nle17]-sauvagine, CHO cell membranes.
In assay [7] the target is CRF-R1. The assay is described as above.
Assay [8] addresses CRF-R1. Nature of the assay: radioreceptor competition vs labeled sauvagine, CHO cell membranes; reference urocortin.

Broadly, the Ki is the dissociation constant of the complex between target and ligand, obtained from inhibition or displacement. Low readings indicate tighter binding, high ones weaker binding.

No end group written: not given here.

Sequence of CRF-R1 (P34998 24-415): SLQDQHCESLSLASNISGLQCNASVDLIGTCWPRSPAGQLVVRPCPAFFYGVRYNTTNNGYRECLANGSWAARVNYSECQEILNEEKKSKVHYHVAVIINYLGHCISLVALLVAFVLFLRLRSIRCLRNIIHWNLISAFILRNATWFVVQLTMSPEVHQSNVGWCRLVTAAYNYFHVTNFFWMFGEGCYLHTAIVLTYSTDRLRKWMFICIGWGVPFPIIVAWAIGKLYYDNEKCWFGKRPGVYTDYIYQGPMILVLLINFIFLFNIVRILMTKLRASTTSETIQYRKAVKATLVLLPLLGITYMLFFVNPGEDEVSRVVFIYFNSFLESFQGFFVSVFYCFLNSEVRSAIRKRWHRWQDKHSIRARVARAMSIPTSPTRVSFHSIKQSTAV

On to “urocortin (Ucn), species not stated (from UniProt P55090 81-120) (peptide)”, for which the Ki amounted to 0.13 nM in the assay with CRF-R1 [1] and 0.15 nM with CRF-R2β [2].

Consider IVLSLDVPIGLLQILLEQARARAAREQATTNARILARVGHC-NH2 [human urocortin-related peptide], for which the results for the Avg. EC50 (nM) (cAMP) with CRF-R1 [3] and in the assay with CRF-R2β [4] were greater than 100 nM and 0.42 nM, respectively. The Ki in the assay with CRF-R1 [5] was determined as 70 nM; with CRF-R2β [6] it was 0.5 nM; with CRF-R1 [1], 78 nM; in the assay with CRF-R2β [2], 0.23 nM.

Take QGPPISIDLSLELLRKMIEIEKQEKEKQQAANNRLLLDTI (peptide, UniProt P01144 1-40, looked up, ends and bridges not checked) [Sauvagine (frog)]: the Ki came out at 0.94 nM with CRF-R1 [7] and 1.7 nM in the assay with CRF-R2β [6].

Take VILSLDVPIGLLRILLEQARYKAARNQAATNAQILAHV-NH2 [Urocortin II (mouse)]: the Avg. EC50 (nM) (cAMP) was greater than 100 nM in the assay with CRF-R1 [3] and 0.14 nM with CRF-R2β [4]. Further, the Ki in the assay with CRF-R2β [6] was found to be 0.66 nM. This molecule displayed a fold less effective than urocortin at competing for binding of labeled sauvagine with CRF-R1 [8] greater than 1000 fold.

Consider DDPPLSIDLTFHLLRTLLELARTQSQRERAEQNRIIFDSV (peptide, UniProt P55090 81-120, looked up) [Urocortin (rat)], for which the Avg. EC50 (nM) (cAMP) with CRF-R1 [3] stood at 0.29 nM; with CRF-R2β [4] it was 0.17 nM. This molecule also gave a Ki with CRF-R2β [6] of 0.62 nM.

The record behind these values is patent US20020127221A1.
